The chains are these.
B1: FBF1 (parent)
chain: YQRPQDSEDMWGDEDFTFGAYQPT
B2: PRPH (parent)
chain: DEIEFLKKLHEEELRDLQVSVESQ
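Note: lentivirally expressed fusions sorted by FACS into six bins by GFP to DsRed ratio, PSI derived from sequencing read proportions per bin multiplied by bin number.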

The variants in the first data set derive from B1. Briefly: protein stability index of a GFP-peptide fusion (GPS, HEK-293T) (PSI 1-6); higher = more stable. The following applies: c terminus: a fixed tail appended.
For YQRPQDSEDMWGDEDFTFGAKQPT [Y21K], the protein stability index was found to be 3.44.

Turning to YQRPQDSEDMWGDEDFTFGGYQPT [A20G], the protein stability index was found to be 2.91.

In the case of YQRPQDSEDMWGDEDFTFGEYQPT [A20E], the protein stability index came out at 3.29.

As to YQRPQDSEDMWGDEDFTFGCYQPT [A20C], the protein stability index was 2.18.

In the case of YQRPQDSEDMWGDEDFTFGIYQPT [A20I], the protein stability index is 2.11.

Consider YQRPQDSEDMWGDEDFTFGWYQPT [A20W], for which the protein stability index is 2.04.

Turning to YQRPQDSEDMWGDEDFTFGDYQPT [A20D], the protein stability index stood at 3.02.

With YQRPQDSEDMWGDEDFTFGQYQPT [A20Q], the protein stability index was 2.97.

On to YQRPQDSEDMWGDEDFTFGMYQPT [A20M], for which the protein stability index amounted to 2.62.

As to YQRPQDSEDMWGDEDFTFGPYQPT [A20P], the protein stability index is 2.92.

Take YQRPQDSEDMWGDEDFTFGKYQPT [A20K]: the protein stability index was 2.94.

On to YQRPQDSEDMWGDEDFTFGNYQPT [A20N], for which the protein stability index was found to be 2.9.

In the case of YQRPQDSEDMWGDEDFTFGLYQPT [A20L], the protein stability index was 2.76.

Turning to YQRPQDSEDMWGDEDFTFGSYQPT [A20S], the protein stability index was 2.69.

YQRPQDSEDMWGDEDFTFGVYQPT [A20V]: the protein stability index was determined as 2.72.

Turning to YQRPQDSEDMWGDEDFTFGFYQPT [A20F], the protein stability index is 2.38.

YQRPQDSEDMWGDEDFTFGRYQPT [A20R]: the protein stability index turned out to be 2.18.

For the variant YQRPQDSEDMWGDEDFTFGHYQPT [A20H], the protein stability index turned out to be 2.95.

For YQRPQDSEDMWGDEDFTFGTYQPT [A20T], the protein stability index worked out at 3.05.

Regarding YQRPQDSEDMWGDEDFTFGYYQPT [A20Y], the protein stability index came out at 2.79.

On to YQRPQDSEDMWGDEDFTFVAYQPT [G19V], for which the protein stability index amounted to 2.8.

Consider YQRPQDSEDMWGDEDFTFPAYQPT [G19P], for which the protein stability index turned out to be 2.77.

Take YQRPQDSEDMWGDEDFTFRAYQPT [G19R]: the protein stability index turned out to be 2.47.

Take YQRPQDSEDMWGDEDFTFWAYQPT [G19W]: the protein stability index came to 1.84.

Consider YQRPQDSEDMWGDEDFTFIAYQPT [G19I], for which the protein stability index came to 2.64.

As for YQRPQDSEDMWGDEDFTFEAYQPT [G19E], the protein stability index stood at 3.76.

In the case of YQRPQDSEDMWGDEDFTFSAYQPT [G19S], the protein stability index is 3.18.

Consider YQRPQDSEDMWGDEDFTFHAYQPT [G19H], for which the protein stability index was determined as 2.67.

For YQRPQDSEDMWGDEDFTFTAYQPT [G19T], the protein stability index is 2.6.

In the case of YQRPQDSEDMWGDEDFTFCAYQPT [G19C], the protein stability index stood at 2.53.

In the case of YQRPQDSEDMWGDEDFTFYAYQPT [G19Y], the protein stability index was 2.35.

For YQRPQDSEDMWGDEDFTFNAYQPT [G19N], the protein stability index worked out at 3.1.

Regarding YQRPQDSEDMWGDEDFTFFAYQPT [G19F], the protein stability index came out at 2.56.

With YQRPQDSEDMWGDEDFTFKAYQPT [G19K], the protein stability index was found to be 2.51.

For YQRPQDSEDMWGDEDFTFQAYQPT [G19Q], the protein stability index was 2.78.

In the case of YQRPQDSEDMWGDEDFTFMAYQPT [G19M], the protein stability index came out at 2.88.

Turning to YQRPQDSEDMWGDEDFTFLAYQPT [G19L], the protein stability index was determined as 2.33.

Take YQRPQDSEDMWGDEDFTFDAYQPT [G19D]: the protein stability index worked out at 3.49.

In the case of YQRPQDSEDMWGDEDFTFAAYQPT [G19A], the protein stability index was found to be 2.59.

Consider YQRPQDSEDMWGDEDRTFGAYQPT [F16R], for which the protein stability index came out at 2.73.

Turning to YQRPQDSEDMWGDEDATFGAYQPT [F16A], the protein stability index is 2.9.

Turning to YQRPQDSEDMWGDEDWTFGAYQPT [F16W], the protein stability index worked out at 2.73.

Take YQRPQDSEDMWGDEDNTFGAYQPT [F16N]: the protein stability index was 3.61.

On to YQRPQDSEDMWGDEDTTFGAYQPT [F16T], for which the protein stability index worked out at 2.8.

As to YQRPQDSEDMWGDEDITFGAYQPT [F16I], the protein stability index came out at 3.14.

In the case of YQRPQDSEDMWGDEDPTFGAYQPT [F16P], the protein stability index worked out at 2.71.

Consider YQRPQDSEDMWGDEDSTFGAYQPT [F16S], for which the protein stability index amounted to 3.29.

Turning to YQRPQDSEDMWGDEDDTFGAYQPT [F16D], the protein stability index is 3.48.

As for YQRPQDSEDMWGDEDMTFGAYQPT [F16M], the protein stability index was 3.17.

As to YQRPQDSEDMWGDEDQTFGAYQPT [F16Q], the protein stability index was 3.4.

On to YQRPQDSEDMWGDEDHTFGAYQPT [F16H], for which the protein stability index is 3.

On to YQRPQDSEDMWGDEDYTFGAYQPT [F16Y], for which the protein stability index came out at 2.83.

As to YQRPQDSEDMWGDEDGTFGAYQPT [F16G], the protein stability index came out at 3.23.

For YQRPQDSEDMWGDEDLTFGAYQPT [F16L], the protein stability index stood at 2.71.

Consider YQRPQDSEDMWGDEDKTFGAYQPT [F16K], for which the protein stability index is 2.87.

As to YQRPQDSEDMWGDEDVTFGAYQPT [F16V], the protein stability index was found to be 2.88.

As to YQRPQDSEDMWGDEDCTFGAYQPT [F16C], the protein stability index was found to be 2.85.

For the variant YQRPQDSEDMWGDEDETFGAYQPT [F16E], the protein stability index is 3.73.

Turning to YQRPQDSEDMWGDEYFTFGAYQPT [D15Y], the protein stability index amounted to 2.23.

For the variant YQRPQDSEDMWGDEVFTFGAYQPT [D15V], the protein stability index was found to be 1.86.

Consider YQRPQDSEDMWGDEWFTFGAYQPT [D15W], for which the protein stability index is 1.78.

As for YQRPQDSEDMWGDEDFYFGAYQPT [T17Y], the protein stability index was found to be 2.1.

As for YQRPQDSEDMWGDEDFDFGAYQPT [T17D], the protein stability index was found to be 3.37.

Turning to YQRPQDSEDMWGDEDFMFGAYQPT [T17M], the protein stability index turned out to be 2.59.

For the variant YQRPQDSEDMWGDEDFIFGAYQPT [T17I], the protein stability index stood at 2.36.

With YQRPQDSEDMWGDEDFEFGAYQPT [T17E], the protein stability index amounted to 3.04.

As for YQRPQDSEDMWGDEDFHFGAYQPT [T17H], the protein stability index came to 2.86.

As for YQRPQDSEDMWGDEDFSFGAYQPT [T17S], the protein stability index was 2.65.

YQRPQDSEDMWGDEDFNFGAYQPT [T17N]: the protein stability index is 3.04.

For the variant YQRPQDSEDMWGDEDFGFGAYQPT [T17G], the protein stability index was found to be 3.01.

For the variant YQRPQDSEDMWGDEDFQFGAYQPT [T17Q], the protein stability index worked out at 3.44.

For the variant YQRPQDSEDMWGDEDFPFGAYQPT [T17P], the protein stability index stood at 2.93.

Take YQRPQDSEDMWGDEDFLFGAYQPT [T17L]: the protein stability index was 2.31.

Turning to YQRPQDSEDMWGDEDFRFGAYQPT [T17R], the protein stability index was 2.68.

Turning to YQRPQDSEDMWGDEDFKFGAYQPT [T17K], the protein stability index was 2.68.

Take YQRPQDSEDMWGDEDFAFGAYQPT [T17A]: the protein stability index was 3.46.

On to YQRPQDSEDMWGDEDFFFGAYQPT [T17F], for which the protein stability index was 2.53.

On to YQRPQDSEDMWGDEDFVFGAYQPT [T17V], for which the protein stability index came out at 3.07.

For the variant YQRPQDSEDMWGDEDFCFGAYQPT [T17C], the protein stability index amounted to 2.65.

On to YQRPQDSEDMWGDEDFWFGAYQPT [T17W], for which the protein stability index was determined as 1.84.

Variants of B2 are the subject of another data set. The data set is described as above. The following applies: c terminus: a fixed tail appended.
Regarding KEIEFLKKLHEEELRDLQVSVESQ [D1K], the protein stability index was found to be 3.95.

Consider REIEFLKKLHEEELRDLQVSVESQ [D1R], for which the protein stability index was found to be 4.01.

On to LEIEFLKKLHEEELRDLQVSVESQ [D1L], for which the protein stability index came out at 4.63.

As for FEIEFLKKLHEEELRDLQVSVESQ [D1F], the protein stability index came to 4.07.

In the case of EEIEFLKKLHEEELRDLQVSVESQ [D1E], the protein stability index was found to be 4.78.

As to PEIEFLKKLHEEELRDLQVSVESQ [D1P], the protein stability index was determined as 4.53.

In the case of QEIEFLKKLHEEELRDLQVSVESQ [D1Q], the protein stability index is 3.77.

Regarding CEIEFLKKLHEEELRDLQVSVESQ [D1C], the protein stability index was found to be 3.41.

As to MEIEFLKKLHEEELRDLQVSVESQ [D1M], the protein stability index is 4.18.

With IEIEFLKKLHEEELRDLQVSVESQ [D1I], the protein stability index worked out at 3.46.

With NEIEFLKKLHEEELRDLQVSVESQ [D1N], the protein stability index worked out at 4.78.

On to GEIEFLKKLHEEELRDLQVSVESQ [D1G], for which the protein stability index worked out at 4.53.

For the variant HEIEFLKKLHEEELRDLQVSVESQ [D1H], the protein stability index turned out to be 4.99.

For the variant AEIEFLKKLHEEELRDLQVSVESQ [D1A], the protein stability index turned out to be 4.22.

The values are drawn from the supplement of paper PMC10567573.
